Source: patent US20240238380A1, “COMPOSITION FOR COMBINATION THERAPY COMPRISING GROWTH DIFFERENTIATION FACTOR-15 VARIANT AND GLUCAGON-LIKE PEPTIDE-1 RECEPTOR AGONIST” (YUHAN CORPORATION, priority 2021, published 2024)
Marks after values point to notes of the source that are not given here.

Key:
[1] = Inhibitory effect on gastric emptying (acetaminophen exposure) in normal rats (Example 8); type: in vivo; conditions: rats, 30 mg/kg oral, positive control
Protocol: Therefore, this example was performed to investigate the inhibitory effect on gastric emptying when the novel long-acting GDF15 fusion protein was administered at the doses equal to the effective dose, higher than the maximum effective dose, or in combination with a GLP-1 receptor agonist to rats. 6-week-old male SD rats (Orient Bio, Republic of Korea) were purchased from Hallym Lab. Animal Inc., Republic of Korea. Animals were acclimated for 7 days. On the day of drug administration, the rats were grouped based on the average body weight of individual rats (n=5 per group) and fasted for at least 6 hours before oral administration of acetaminophen. Then, 0.1, 1, and 10 nmol/kg of FM9-6+Fc_hole, 10 nmol/kg of semaglutide (long-acting GLP-1 derivative, SEQ ID NO: 114), and combination of FM9-6+Fc_hole and semaglutide (1+10 nmol/kg) were subcutaneously administered. The semaglutide was Ozempic® (semaglutide) from Novo NorDisk. As a negative control drug, D-PBS (normal vehicle) was subcutaneously administered, and as a positive control drug, 30 mg/kg of loperamide was orally administered 45 minutes before acetaminophen administration. On 3, 24 and 72 hours after a single dose of the test articles, acetaminophen was orally administered at 100 mg/kg to rats, and blood samples were collected before and at 30, 60, 90, 120 and 150 minutes after acetaminophen administration. The plasma concentration of acetaminophen was analyzed, and the pharmacokinetic profiles and the systemic exposures of acetaminophen were compared to evaluate the inhibitory effect on gastric emptying among the groups.

[2] = molecular target: T1, GFRAL/RET/SRE-luc-overexpressing HEK293 cell line (Homo sapiens, UniProt Q6UXV0); experiment: Functional activity of long-acting GDF15 fusion protein (Bright-Glo luciferase assay); type: cell-based; conditions: for EC50: luciferase RLU, 4 hours reaction; for Emax (%): relative to FM9-6+Fc_hole (Emax 100%); for EC50 values (in words) / Emax values (in words): compared with the other linkers
T1 construct: expressed in transfected cells; host or cells: HEK293 (human embryonic kidney 293), overexpressing GFRAL, RET and an SRE-luciferase reporter
Protocol: Two variants (FM9+Fc_hole, FM11+Fc_hole) were compared and evaluated for GDF15 activity depending on the linker type and length. The GDF15 activity was measured using a Bright-Glo™ luciferase assay kit (Promega) and a GFRAL/RET/SRE-luc-overexpressing HEK293 cell line (Human embryonic kidney 293).
Specifically, 1×10^5 GFRAL/RET/SRE-luc-overexpressing HEK293 cells were dispended in DMEM containing 10% FBS in each well of a 96-well-plate, followed by culture at 37° C. and 5% CO2 for 24 hours. After 24 hours, each medium of the 96-well plate was replaced with 50 μl of a serum-free medium, followed by culture at 37° C. and 5% CO2 for 4 hours.
In addition, the long-acting GDF15 fusion protein produced in Example 1 was prepared by 3-fold serial dilution from a concentration of 2000 nM using a serum-free medium. Thereafter, 50 μl of the long-acting GDF15 fusion protein dilution was added to each well containing 50 μl of the replaced serum-free medium and the GERAL/RET/SRE-luc cell line so that the actual concentration thereof was serially diluted 3-fold from 1000 nM, followed by reaction at 37° C. and 5% CO2 for 4 hours. After 4 hours, each well was treated with 100 μl of a Bright-Glo™ solution prepared by adding a Bright-Glo™ buffer to a Bright-Glo™ substrate, followed by reaction at room temperature for 1 minute.
Thereafter, the reaction value (relative light units, RLU) was measured using a microplate reader (Perkin Elmer, Wallac Victor X5) capable of measuring luminescence. The results thereof are shown in Table 2 below and in FIGS. 1 and 2. Here, the functional activity of the long-acting GDF15 fusion protein depending on the GDF15 sequence, linker type, and length was compared based on the in-vitro GDF15 activity of FM9-6+Fc_hole (Emax 100%).

[3] = Pharmacokinetics of long-acting GDF15 fusion protein (dimer) in C57BL/6N mice; type: in vivo; conditions: 1 mg/kg subcutaneous; for Cmax: active GDF15 in serum by ELISA
Protocol: 6-week-old male C57BL/6N mice (Orient Bio, Republic of Korea) were purchased from Hallym Lab. Animal Inc., Republic of Korea. Animals were acclimated for 7 days, and on the day of drug administration, the mice were grouped based on the average body weight of individual mice (n=3 per blood sampling time per group). Then, FM9-4+Fc_hole, FM9-6+Fc_hole, FM11-4+Fc_hole, and FM11-6+Fc_hole were subcutaneously administered at 1 mg/kg to each group, and blood samples were collected at 4, 24, 48, 72, 96, 120, 168, and 240 hours after administration. Determination of active GDF15 in serum was achieved by enzyme-linked immunosorbent assay (ELISA), and pharmacokinetic parameters of each long-acting GDF15 fusion protein (dimer) are shown in Table 3 below.

T1 sequence (Q6UXV0 19-394, species assumed): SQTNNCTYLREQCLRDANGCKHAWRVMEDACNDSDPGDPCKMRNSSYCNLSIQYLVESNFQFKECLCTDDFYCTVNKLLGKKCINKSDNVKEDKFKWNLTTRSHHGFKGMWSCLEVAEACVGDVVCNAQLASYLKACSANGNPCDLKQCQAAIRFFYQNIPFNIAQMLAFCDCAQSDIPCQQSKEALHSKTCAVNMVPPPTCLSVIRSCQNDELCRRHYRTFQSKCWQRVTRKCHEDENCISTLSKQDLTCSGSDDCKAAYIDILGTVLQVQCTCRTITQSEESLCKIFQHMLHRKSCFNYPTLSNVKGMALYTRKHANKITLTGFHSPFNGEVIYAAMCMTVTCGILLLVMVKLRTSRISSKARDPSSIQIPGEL
T1 sequence (P07949 29-1114 partner, species assumed): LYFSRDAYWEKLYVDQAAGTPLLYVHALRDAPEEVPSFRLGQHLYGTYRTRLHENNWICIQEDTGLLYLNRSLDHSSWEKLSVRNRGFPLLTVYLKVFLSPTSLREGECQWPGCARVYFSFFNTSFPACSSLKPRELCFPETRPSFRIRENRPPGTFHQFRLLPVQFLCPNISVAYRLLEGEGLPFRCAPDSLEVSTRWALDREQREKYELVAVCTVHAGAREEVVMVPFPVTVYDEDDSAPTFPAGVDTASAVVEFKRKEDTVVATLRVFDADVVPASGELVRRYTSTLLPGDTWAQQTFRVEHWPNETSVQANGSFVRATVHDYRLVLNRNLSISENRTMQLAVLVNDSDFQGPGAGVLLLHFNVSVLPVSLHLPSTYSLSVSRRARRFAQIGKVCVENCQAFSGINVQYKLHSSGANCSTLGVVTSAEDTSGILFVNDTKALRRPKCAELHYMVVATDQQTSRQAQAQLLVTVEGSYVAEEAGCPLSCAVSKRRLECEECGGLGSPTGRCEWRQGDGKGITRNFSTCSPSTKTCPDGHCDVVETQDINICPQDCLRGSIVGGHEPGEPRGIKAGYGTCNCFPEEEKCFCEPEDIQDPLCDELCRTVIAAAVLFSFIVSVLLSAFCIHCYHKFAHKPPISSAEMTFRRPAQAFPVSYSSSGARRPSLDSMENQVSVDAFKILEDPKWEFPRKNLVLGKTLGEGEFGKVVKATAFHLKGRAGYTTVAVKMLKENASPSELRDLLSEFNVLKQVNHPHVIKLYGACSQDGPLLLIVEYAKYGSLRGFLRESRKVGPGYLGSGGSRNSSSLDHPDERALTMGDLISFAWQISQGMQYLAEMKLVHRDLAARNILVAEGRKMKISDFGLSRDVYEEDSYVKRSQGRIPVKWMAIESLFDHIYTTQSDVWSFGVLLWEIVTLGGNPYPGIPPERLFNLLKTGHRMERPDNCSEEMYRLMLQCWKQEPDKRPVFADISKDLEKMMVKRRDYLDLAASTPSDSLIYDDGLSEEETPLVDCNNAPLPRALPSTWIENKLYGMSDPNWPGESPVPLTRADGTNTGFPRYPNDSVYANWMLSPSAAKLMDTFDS

Row | Compound | EC50 [2] [nM] | Emax (%) [2] [%] | AUClast [3] [µg·h/mL] | CL/F [3] [mL/h/kg] | T1/2,app [3] [h] | Tmax [3] [h] | Cmax [3] [µg/mL] | other results
1 | CN(C)C(=O)C(CCN1CCC(O)(c2ccc(Cl)cc2)CC1)(c1ccccc1)c1ccccc1 [Loperamide, loperamide, reference compound] | – | – | – | – | – | – | – | AUClast of acetaminophen (μg · min/mL), 3 hr ([1]; 3 hr): 1565.13 µg·min/mL; AUClast of acetaminophen (μg · min/mL), 24 hr ([1]; 24 hr): 761.04** μg · min/mL; AUClast of acetaminophen (μg · min/mL), 72 hr ([1]; 72 hr): 996.36*** μg · min/mL
2 | FM9-2 + Fc_hole: long-acting GDF15 fusion protein (dimer): GDF15 ΔN2, S64R, IgG1 Fc_knob/Fc_hole, linker GS(G4S)5; SEQ ID NOs: 99 and 47 | 9.5 | 110.8 | – | – | – | – | – | –
3 | FM9-3 + Fc_hole: long-acting GDF15 fusion protein (dimer): GDF15 ΔN2, S64R, IgG1 Fc_knob/Fc_hole, linker GS(G4S)7; SEQ ID NOs: 100 and 47 | 9.3 | 95.6 | – | – | – | – | – | –
4 | FM9-4 + Fc_hole: long-acting GDF15 fusion protein (dimer): GDF15 ΔN2, S64R, IgG1 Fc_knob/Fc_hole, linker GS(EEEA)6; SEQ ID NOs: 101 and 47 | – | – | 750.49702 | 1.30 | 36.84 | 24 | 8.42137 | EC50 values (in words) [2]: relatively low EC50 values; Emax values (in words) [2]: high Emax values
5 | FM11-2 + Fc_hole: long-acting GDF15 fusion protein (dimer): GDF15 ΔN3, G4N, D5S, H6T, S64R, IgG1 Fc_knob/Fc_hole, linker GS(G4S)5; SEQ ID NOs: 105 and 47 | 7.7 | 79.4 | – | – | – | – | – | –
6 | FM11-3 + Fc_hole: long-acting GDF15 fusion protein (dimer): GDF15 ΔN3, G4N, D5S, H6T, S64R, IgG1 Fc_knob/Fc_hole, linker GS(G4S)7; SEQ ID NOs: 106 and 47 | 7.8 | 81.0 | – | – | – | – | – | –
7 | FM11-4 + Fc_hole: long-acting GDF15 fusion protein (dimer): GDF15 ΔN3, G4N, D5S, H6T, S64R, IgG1 Fc_knob/Fc_hole, linker GS(EEEA)6; SEQ ID NOs: 107 and 47 | – | – | 690.21308 | 1.41 | 40.61 | 24 | 7.20002 | EC50 values (in words) [2]: relatively low EC50 values; Emax values (in words) [2]: high Emax values
8 | FM11-6 + Fc_hole: long-acting GDF15 fusion protein (dimer): GDF15 ΔN3, G4N, D5S, H6T, S64R, IgG1 Fc_knob/Fc_hole, linker GS(EAAAK)5; SEQ ID NOs: 109 and 47 | – | – | 116.43394 | 8.43 | 25.84 | 24 | 1.54777 | –
